PMC314469, “Protein Interaction Networks by Proteome Peptide Scanning” (PLoS Biology, 2004)

T1: Boi1 SH3 (BOI1_YEAST), P38041
T1 chain: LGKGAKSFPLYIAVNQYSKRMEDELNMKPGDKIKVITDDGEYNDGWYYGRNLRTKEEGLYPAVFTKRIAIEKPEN

T2: Boi2 SH3 (BOI2_YEAST), P39969
T2 chain: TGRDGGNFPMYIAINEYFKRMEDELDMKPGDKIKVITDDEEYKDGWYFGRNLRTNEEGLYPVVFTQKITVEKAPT

T3: Myo5 SH3 (MYO5_YEAST), Q04439
T3 chain: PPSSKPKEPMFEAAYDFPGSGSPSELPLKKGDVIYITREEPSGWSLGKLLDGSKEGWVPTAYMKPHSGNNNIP

T4: Rvs167 SH3 (RV167_YEAST), P39743
T4 chain: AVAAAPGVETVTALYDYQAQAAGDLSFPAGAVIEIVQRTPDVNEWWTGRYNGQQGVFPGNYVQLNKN

T5: Yfr024 SH3 (LSB3_YEAST), P43603
T5 chain: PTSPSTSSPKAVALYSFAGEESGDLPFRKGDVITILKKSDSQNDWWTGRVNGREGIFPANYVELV

T6: Yhr016c SH3 (YSC84_YEAST), P32793
T6 chain: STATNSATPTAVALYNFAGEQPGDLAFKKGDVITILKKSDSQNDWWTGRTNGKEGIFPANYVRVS


How the values were obtained:
Assay in all cases: SPOT array
[1] = target: T1, Boi1 SH3 (BOI1_YEAST), P38041
[2] = target: T2, Boi2 SH3 (BOI2_YEAST), P39969
[3] = target: T3, Myo5 SH3 (MYO5_YEAST), Q04439
[4] = target: T4, Rvs167 SH3 (RV167_YEAST), P39743
[5] = target: Sho1 SH3 (SHO1_YEAST), P40073
Sho1 SH3 (SHO1_YEAST), P40073, sequence (P40073 295-366): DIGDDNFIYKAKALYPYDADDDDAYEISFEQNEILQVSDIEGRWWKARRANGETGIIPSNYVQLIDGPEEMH

[6] = target: T5, Yfr024 SH3 (LSB3_YEAST), P43603
[7] = target: T6, Yhr016c SH3 (YSC84_YEAST), P32793

| Binder | normalised SPOT signal, Boehringer light units (BLU); mean over the file's lines of this peptide [1] | normalised SPOT signal, Boehringer light units (BLU); mean over the file's lines of this peptide [2] | normalised SPOT signal, Boehringer light units (BLU); mean over the file's lines of this peptide [3] | normalised SPOT signal, Boehringer light units (BLU); mean over the file's lines of this peptide [4] | normalised SPOT signal, Boehringer light units (BLU); mean over the file's lines of this peptide [5] | normalised SPOT signal, Boehringer light units (BLU); mean over the file's lines of this peptide [6] | normalised SPOT signal, Boehringer light units (BLU); mean over the file's lines of this peptide [7] |
| --- | --- | --- | --- | --- | --- | --- | --- |
| SYISRKYPRAPAFI [YMR320W 69-82] | 3080 | 32.8 | 740 | 100 | 50 | 212 | 28.8 |
| TARNKKSPGGPRQR [YLR244C 372-385] | 273 | 45.9 | 593 | 84 | 109 | 423 | 28.9 |
| SVNIKSWPLKPSNF [YNL226W 113-126] | 76.2 | 0 | 56.5 | 61.7 | 49.8 | 58.3 | 22.6 |
| TEFSRPIPPTPSGF [YPL009C 63-76] | 40.4 | 0 | 163 | 34400 | 86.7 | 13800 | 9520 |
| STNAKKDPFPPPKD [YGR140W 417-430] | 33 | 0.9 | 198 | 39.8 | 85 | 52.1 | 26.7 |
| STDHRGTPANPGRV [YER163C 43-56] | 26.3 | 0 | 257 | 23.6 | 60.8 | 6.2 | 30.5 |
| TDLFKPLPEPPTEL [YNL331C 2-15] | 32.5 | 23.1 | 23.4 | 18.8 | 14700 | 129 | 31.5 |
| TEIYKLEPREPQVD [YEL031W 1078-1091] | 132 | 15.6 | 29.1 | 98 | 29 | 0 | 64.7 |
| TDLGKDIPFFPSSE [YDR443C 541-554] | 0 | 15.6 | 146 | 59.3 | 48.6 | 9.5 | 13.5 |
| TELLRIIPEMPKDL [YLR032W 80-93] | 79.9 | 15.7 | 228 | 22.9 | 97.2 | 132 | 19.4 |
| TDTTKVTPIVPVPI [YHR188C 382-395] | 27.1 | -0 | 48 | 24.6 | 30.2 | 11.7 | 6.5 |
| SVDPKNYPDAPLEG [YKL215C 38-51] | 114 | 24.7 | 91.1 | 17.6 | 28.2 | 48.2 | 46.1 |
| TELLKTLPFYPTPS [YGR110W 91-104] | 57.9 | 0 | 77.3 | 57.4 | 53.6 | 22.7 | 10.8 |
| SVSEKTNPSSPSVS [YHR061C 244-257] | 124 | 29.4 | 127 | 2 | 111 | 0 | 12.6 |
| TASGKTSPILPLQN [YBR066C 94-107] | 106 | 20.8 | 290 | 35.8 | 0.1 | 2.6 | 5.1 |
| SYMDKIYPDLPNDK [YFL047W 497-510] | 221 | 22.8 | 83 | 75.3 | 138 | 224 | 37.2 |
